We go through 7 molecules from PMC3352997.

Test [1] addresses Factor Xa (activated factor X), human plasma (human). Nature of the test: titration of protease activity.
Test [2] has the same target. Nature of the test: enzyme inhibition kinetics.
Test [3] deals with Factor XIa (activated factor XI), human plasma (human). As to the kind of experiment: titration of protease activity.
Test [4] deals with Factor Xa (activated factor X), human plasma (human). As to the kind of experiment: titration of protease activity. The source holds these as a separate data set.
Factor Xa (activated factor X), human plasma (human), sequence (P00742 whole entry): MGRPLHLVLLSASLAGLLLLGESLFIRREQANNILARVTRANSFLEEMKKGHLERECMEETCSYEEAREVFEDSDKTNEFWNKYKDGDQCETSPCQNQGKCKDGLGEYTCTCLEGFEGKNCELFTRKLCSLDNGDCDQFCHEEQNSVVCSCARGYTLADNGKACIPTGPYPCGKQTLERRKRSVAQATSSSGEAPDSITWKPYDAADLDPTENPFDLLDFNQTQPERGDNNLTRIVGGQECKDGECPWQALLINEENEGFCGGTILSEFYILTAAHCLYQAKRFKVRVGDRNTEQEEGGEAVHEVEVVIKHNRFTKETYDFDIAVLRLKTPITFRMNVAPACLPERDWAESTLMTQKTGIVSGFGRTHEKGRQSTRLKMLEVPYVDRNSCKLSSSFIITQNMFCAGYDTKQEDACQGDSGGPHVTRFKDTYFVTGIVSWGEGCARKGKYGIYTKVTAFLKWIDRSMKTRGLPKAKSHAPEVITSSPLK
The target in test [5] is Factor XIa (activated factor XI), human plasma (human). Nature of the test: titration of protease activity. This is another data set of the same source.
In test [6] the target is Factor Xa (activated factor X), human plasma (human). Nature of the test: titration of protease activity. The source holds these as a separate data set.
The target of test [7] is Factor XIa (activated factor XI), human plasma (human). Nature of the test: enzyme inhibition kinetics.
For test [8] the target is unchanged. Nature of the test: enzyme inhibition kinetics. This is another data set of the same source.
The target in test [9] is Factor Xa (activated factor X), human plasma (human). As to the kind of experiment: enzyme inhibition kinetics. The source holds these as a separate data set.
Test [10] has the same target. As to the kind of experiment: enzyme inhibition kinetics. This is another data set of the same source.
Test [11] deals with FXa-R240A (heparin-binding exosite mutant of factor Xa) (UniProt P00742). Nature of the test: enzyme inhibition kinetics.
The target is the same in test [12]. Nature of the test: enzyme inhibition kinetics. The source holds these as a separate data set.

Residue numbers refer to the chain shown, from its start. Where two headings read alike, the source gives them in different places.

B1: ZPI-des-NT (ZPI with the first 52 residues of the acidic N-terminal tail deleted) (domain or fragment)
chain: QLAKETSNFGFSLLRKISMRHDGNMVFSPFGMSLAMTGLMLGATGPTETQIKRGLHLQALKPTKPGLLPSLFKGLRETLSRNLELGLTQGSFAFIHKDFDVKETFFNLSKRYFDTECVPMNFRNASQAKRLMNHYINKETRGKIPKLFDEINPETKLILVDYILFKGKWLTPFDPVFTEVDTFHLDKYKTIKVPMMYGAGKFASTFDKNFRCHVLKLPYQGNATMLVVLMEKMGDHLALEDYLTTDLVETWLRNMKTRNMEVFFPKFKLDQKYEMHELLRQMGIRRIFSPFADLSELSATGRNLQVSRVLQRTVIEVDERGTEAVAGILSEITAYSMPPVIKVDRPFHFMIYEETSGMLLFLGRVVNPTLL
B1: the SI (stoichiometry of inhibition) in test [1] was 4.5 mol I/mol E; in test [3] it was 15.6 mol I/mol E; in [4], 7.3 mol I/mol E; in [5] it was 8.5 mol I/mol E; in test [6] it was 7.4 mol I/mol E. In addition, the k2(app) (apparent second-order association rate constant of inhibition) in test [2] came out at 1.8e+06 M⁻¹ s⁻¹; in test [7], 110000 M⁻¹ s⁻¹; in test [8], 29000 M⁻¹ s⁻¹; in test [9] it was 2100 M⁻¹ s⁻¹. The k2(app) x SI (second-order rate constant corrected for SI) in [2] is 8.1e+06 M⁻¹ s⁻¹; in [7], 940000 M⁻¹ s⁻¹; in test [8], 450000 M⁻¹ s⁻¹; in [9], 15000 M⁻¹ s⁻¹.

B2: Protein Z-dependent protease inhibitor, wild type (natural protein)
chain: LAPSPQSPETPAPQNQTSRVVQAPKEEEEDEQEASEEKASEEEKAWLMASRQQLAKETSNFGFSLLRKISMRHDGNMVFSPFGMSLAMTGLMLGATGPTETQIKRGLHLQALKPTKPGLLPSLFKGLRETLSRNLELGLTQGSFAFIHKDFDVKETFFNLSKRYFDTECVPMNFRNASQAKRLMNHYINKETRGKIPKLFDEINPETKLILVDYILFKGKWLTPFDPVFTEVDTFHLDKYKTIKVPMMYGAGKFASTFDKNFRCHVLKLPYQGNATMLVVLMEKMGDHLALEDYLTTDLVETWLRNMKTRNMEVFFPKFKLDQKYEMHELLRQMGIRRIFSPFADLSELSATGRNLQVSRVLQRTVIEVDERGTEAVAGILSEITAYSMPPVIKVDRPFHFMIYEETSGMLLFLGRVVNPTLL
For the molecule B2, the SI (stoichiometry of inhibition) came to 2.8 mol I/mol E in test [1]; 10.2 mol I/mol E in test [3]; 3.8 mol I/mol E in [4]; 4.3 mol I/mol E in [5]; 4.1 mol I/mol E in test [6]. Also, the k2(app) (apparent second-order association rate constant of inhibition) came to 2.5e+06 M⁻¹ s⁻¹ in [2]; 180000 M⁻¹ s⁻¹ in test [10]; 420000 M⁻¹ s⁻¹ in test [7]; 58000 M⁻¹ s⁻¹ in test [8]; 3400 M⁻¹ s⁻¹ in test [9]. In addition, the k2 (second-order association rate constant of inhibition) worked out at 30000 M⁻¹ s⁻¹ in test [11] and 2800 M⁻¹ s⁻¹ in test [12].

B3: ZPI-3A (ZPI with Lys-113, Lys-116 and Lys-125 substituted with Ala) (natural protein)
chain: B2 chain with K113A, K116A, K125A
As to B3, the SI (stoichiometry of inhibition) in test [1] is 3.3 mol I/mol E; in test [3], 13.3 mol I/mol E; in [4], 3.8 mol I/mol E; in [5], 5.2 mol I/mol E; in test [6], 4.5 mol I/mol E. Further, the k2(app) (apparent second-order association rate constant of inhibition) in test [2] is 2e+06 M⁻¹ s⁻¹; in test [10], 95000 M⁻¹ s⁻¹; in test [7], 260000 M⁻¹ s⁻¹; in test [8], 41000 M⁻¹ s⁻¹; in test [9], 2600 M⁻¹ s⁻¹. Moreover, the k2(app) x SI (second-order rate constant corrected for SI) worked out at 6.6e+06 M⁻¹ s⁻¹ in test [2]; 360000 M⁻¹ s⁻¹ in [10]; 1.4e+06 M⁻¹ s⁻¹ in test [7]; 540000 M⁻¹ s⁻¹ in test [8]; 12000 M⁻¹ s⁻¹ in test [9].

B4: ZPI single mutant with Arg-128 substituted with Ala (natural protein)
chain: B2 chain with R128A
As for B4, the fold decrease in reactivity in the presence of heparin in [8] and in test [9] was under 2 fold each time.

B5: ZPI single mutant with Lys-116 substituted with Ala (natural protein)
chain: B2 chain with K116A
Turning to B5, the fold decrease in reactivity in the presence of heparin in [8] and in test [9] was under 2 fold each time.

B6: ZPI single mutant with Lys-125 substituted with Ala (natural protein)
chain: B2 chain with K104A
Consider B6, for which the fold decrease in reactivity in the presence of heparin in test [8] and in test [9] was under 2 fold in each case.

B7: ZPI single mutant with Lys-113 substituted with Ala (natural protein)
chain: B2 chain with K113A
On to B7, for which the fold decrease in reactivity in the presence of heparin in test [8] and in test [9] was under 2 fold throughout.
